Results as given in the supplement of paper PMC10126150.
± gives the standard deviation of the averaged measurements.

System: ATP
Assay: switch fluorescence ratio, 500 uM ATP over buffer (Cy3 cluster intensity, sum of 5 cycles each) (fold (ratio)); higher = stronger signal-on switching upon ATP binding; sequences stand for … in TCGTCGGCAGCGTCAGATGTGTATAAGAGACAGTTTTTTTTTTTTTTTTTTTTTTTTT…TC
Details: aptamer strand: ATP DNA aptamer (quencher-CACCTGGGGGAGTATTGCGGAGGAAGG + anchor), 100 nM annealed; ATP concentration: 500 uM
How it was run: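 Imaging in selection buffer was followed by imaging after 15 min with 500 uM ATP at 22 °C, for Cy3-labelled switching-strand clusters annealed to 100 nM quencher-labelled ATP aptamer on a modified Illumina MiSeq flow-cell. Five of these buffer/ATP cycles ran, separated by NaOH stripping and re-annealing. The fluorescence ratio per cluster is summed target-cycle over summed buffer-cycle Cy3 intensity, averaged per switch-domain sequence; clusters outside 100-1000 RFU were removed.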
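Also: ATP exposure 15 min at 22 °C before imaging.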

| Sequence | switch fluorescence ratio |
| --- | --- |
| TCGTGTACGC | 1 ± 0.023 |
| TCGTGTAGGG | 0.984 ± 0.014 |
| TCGTGTATGT | 1.014 ± 0.0039 |
| TCGTGTTCGG | 0.971 ± 0.029 |
| TCGTTAATGT | 1.01 ± 0.035 |
| TCGTTCATGA | 1 ± 0.061 |
| TCGTTCGCGG | 1.12 ± 0.015 |
| TCGTTCGTCT | 0.973 ± 0.039 |
| TCGTTGACGT | 0.985 ± 0.04 |
| TCGTTGAGGC | 1.037 ± 0.0072 |
| TCGTTGTCGT | 1.04 ± 0.03 |
| TCGTTGTGAG | 1.004 ± 0.0089 |
| TCGTTGTGTA | 0.995 ± 0.03 |
| TCGTTTACTT | 1.06 ± 0.13 |
| TCGTTTAGGA | 0.974 ± 0.031 |
| TCGTTTAGGT | 0.977 ± 0.026 |
| TCGTTTATTA | 1 ± 0.089 |
| TCGTTTGATT | 1.01 ± 0.019 |
| TCGTTTGTTT | 0.982 ± 0.04 |
| TCGTTTTCGT | 0.9787 ± 0.009 |
| TCGTTTTTTT | 1.07 ± 0.13 |
| TCTAAAAAAG | 0.991 ± 0.028 |
| TCTAAAAGAT | 0.9771 ± 0.0026 |
| TCTAAAATG | 0.972 ± 0.029 |
| TCTAAATGGG | 1.029 ± 0.005 |
| TCTAACAGCC | 1.06 ± 0.028 |

| Sequence | switch fluorescence ratio |
| --- | --- |
| TCTAAGTTTT | 0.97 ± 0.01 |
| TCTAATACAG | 1.03 ± 0.032 |
| TCTAATATAC | 1.62 ± 0.028 |
| TCTACGAGAG | 1.04 ± 0.048 |
| TCTAGATAAA | 1.04 ± 0.052 |
| TCTAGATGGT | 0.992 ± 0.025 |
| TCTAGGGGAG | 1.007 ± 0.0099 |
| TCTAGGGGGT | 0.9766 ± 0.0071 |
| TCTAGGTTTT | 1.005 ± 0.0047 |
| TCTAGTTAGG | 1.0115 ± 0.00098 |
| TCTATAGGGG | 1 ± 0.05 |
| TCTATATTAG | 1.02 ± 0.023 |
| TCTATGAAAA | 0.9818 ± 0.004 |
| TCTATGGGAC | 1.05 ± 0.013 |
| TCTATTCTCG | 1.013 ± 0.0056 |
| TCTATTTGGT | 0.9827 ± 0.0098 |
| TCTCACGATT | 1.022 ± 0.0061 |
| TCTCAGGGGA | 1.16 ± 0.11 |
| TCTCAGGTTG | 1.072 ± 0.0058 |
| TCTCCATTGC | 1.67 ± 0.035 |
| TCTCCGTCCT | 1.33 ± 0.025 |
| TCTCCTGGCT | 1.01 ± 0.014 |
| TCTCGGATGT | 0.99 ± 0.039 |
| TCTCGGGGTA | 0.979 ± 0.046 |
| TCTCGGGTCT | 1.02 ± 0.045 |
| TCTCGGGTTT | 0.9951 ± 0.0055 |

| Sequence | switch fluorescence ratio |
| --- | --- |
| TCTCGTAAAT | 1.034 ± 0.01 |
| TCTCGTACAG | 0.982 ± 0.024 |
| TCTCTGAGGA | 0.985 ± 0.013 |
| TCTCTGGCAG | 1.17 ± 0.17 |
| TCTGAAACCG | 1.18 ± 0.12 |
| TCTGAAATGG | 1.04 ± 0.047 |
| TCTGAAGGGG | 1.12 ± 0.11 |
| TCTGAATGG | 1.01 ± 0.033 |
| TCTGACTTGA | 0.968 ± 0.018 |
| TCTGAGAGGG | 1 ± 0.017 |
| TCTGAGATAT | 0.9872 ± 0.0028 |
| TCTGAGCGAC | 1.57 ± 0.14 |
| TCTGAGGTTT | 1.04 ± 0.029 |
| TCTGCCTAGG | 1.13 ± 0.075 |
| TCTGCGTAAG | 1.003 ± 0.0065 |
| TCTGCGTCTG | 1.16 ± 0.2 |
| TCTGCTTATT | 0.979 ± 0.048 |
| TCTGGAGTTG | 1.01 ± 0.084 |
| TCTGGCAATG | 1.46 ± 0.061 |
| TCTGGCGGC | 0.981 ± 0.039 |
| TCTGGCTATT | 1.01 ± 0.02 |
| TCTGGCTTTT | 1.022 ± 0.0092 |
| TCTGGGAATT | 1.046 ± 0.0027 |
| TCTGGGCTTT | 1.07 ± 0.1 |
